Patent US20190046600

Legend:
[1] = molecular target: T1, HILR-030 (cyclo-[Pro-Arg-Gly-Pro-Arg-Pro-Val-Trp-Trp-Gpa-Gpa-Trp-Trp-Gpa-Gpa-Trp-Trp])
T1 chain: PRGPRPVWWXXWWXXWW

[2] = molecular target: T2, Ac-DEVD-CHO
T2 chain: DEVD

B1: recombinant human caspase 3 enzyme (protein)
chain: SGISLDNSYKMDYPEMGLCIIINNKNFHKSTGMTSRSGTDVDAANLRETFRNLKYEVRNKNDLTREEIVELMRDVSKEDHSKRSSFVCVLLSHGEEGIIFGTNGPVDLKKITNFFRGDRCRSLTGKPKLFIIQACRGTELDCGIETDSGVDDDMACHKIPVEADFLYAYSTAPGYYSWRNSKDGSWFIQSLCAMLKQYADKLEFMHILTRVNRKVATEFESFSFDATFHAKKQIPCIVSMLTKELYFYH
- caspase-3 activity (Apo-ONE Homogeneous Caspase-3/7 assay, 2 h co-incubation with substrate or enzyme) [1]: Both DEVD-CHO and HILR-030 inhibited the caspase-3 activity in a dose-dependent fashion
- caspase-3 activity (Apo-ONE Homogeneous Caspase-3/7 assay, 2 h co-incubation with substrate or enzyme) [2]: Both DEVD-CHO and HILR-030 inhibited the caspase-3 activity in a dose-dependent fashion
- caspase-3 activity (Apo-ONE Homogeneous Caspase-3/7 assay, cleavage of Z-DEVD-R110, recombinant enzyme) [2]: Ac-DEVD-CHO inhibited the activity of caspase-3 in a dose-dependent manner, giving rise to IC50s within the expected range according to the inhibitor specification sheet
